Measurements from patent US20170101454A1 (Novo Nordisk, published 2017).
Starred links: 1 amine or outer side, 2 acyl side, 3 side chain; linkers in the order of their positions; H or OH if unused. Non-standard residues stand in square brackets, D forms with d. Groups on a side chain read outwards from the residue. No end group written: not given here. *: point of attachment. C18 diacid = O=C(O)CCCCCCCCCCCCCCCCC(=O)*; γGlu = O=C(O)[C@H](CCC(=O)[*:2])N[*:1]; Ac4c = NC1(C(=O)O)CCC1; AEEA = NCCOCCOCC(=O)O; Aib = CC(C)(N)C(=O)O

B1: N^ε28-[2-[2-[2-[[2-[2-[2-[[(4S)-4-carboxy-4-[[(4S)-4-carboxy-4-[[(4S)-4-carboxy-4-(17-carboxyheptadecanoylamino)butanoyl]amino]butanoyl]amino]butanoyl]amino]eth … (peptide)
peptide: H[Aib]QGTFTSDLSKYLDARRARDFVQWLIK([AEEA-AEEA-γGlu-γGlu-γGlu-C18 diacid])T-NH2
modifications: N-terminus assumed
SMILES: CC[C@H](C)[C@H](NC(=O)[C@H](CC(C)C)NC(=O)[C@H](Cc1c[nH]c2ccccc12)NC(=O)[C@H](CCC(N)=O)NC(=O)[C@@H](NC(=O)[C@H](Cc1ccccc1)NC(=O)[C@H](CC(=O)O)NC(=O)[C@H](CCCNC(=N)N)NC(=O)[C@H](C)NC(=O)[C@H](CCCNC(=N)N)NC(=O)[C@H](CCCNC(=N)N)NC(=O)[C@H](C)NC(=O)[C@H](CC(=O)O)NC(=O)[C@H](CC(C)C)NC(=O)[C@H](Cc1ccc(O)cc1)NC(=O)[C@H](CCCCN)NC(=O)[C@H](CO)NC(=O)[C@H](CC(C)C)NC(=O)[C@H](CC(=O)O)NC(=O)[C@H](CO)NC(=O)[C@@H](NC(=O)[C@H](Cc1ccccc1)NC(=O)[C@@H](NC(=O)CNC(=O)[C@H](CCC(N)=O)NC(=O)C(C)(C)NC(=O)[C@@H](N)Cc1c[nH]cn1)[C@@H](C)O)[C@@H](C)O)C(C)C)C(=O)N[C@@H](CCCCNC(=O)COCCOCCNC(=O)COCCOCCNC(=O)CC[C@H](NC(=O)CC[C@H](NC(=O)CC[C@H](NC(=O)CCCCCCCCCCCCCCCCC(=O)O)C(=O)O)C(=O)O)C(=O)O)C(=O)N[C@H](C(N)=O)[C@@H](C)O
notes: also called Chem. 5; Chem 5
B2: N^ε24-[2-[2-[2-[[2-[2-[2-[[(4S)-4-carboxy-4-[[(4S)-4-carboxy-4-[[(4S)-4-carboxy-4-(17-carboxyheptadecanoylamino)butanoyl]amino]butanoyl]amino]butanoyl]amino]eth … (peptide)
peptide: H[Aib]QGTFTSDYSKYLDARRARDFVK([AEEA-AEEA-γGlu-γGlu-γGlu-C18 diacid])WLIST-NH2
modifications: N-terminus assumed
SMILES: CC[C@H](C)[C@H](NC(=O)[C@H](CC(C)C)NC(=O)[C@H](Cc1c[nH]c2ccccc12)NC(=O)[C@H](CCCCNC(=O)COCCOCCNC(=O)COCCOCCNC(=O)CC[C@H](NC(=O)CC[C@H](NC(=O)CC[C@H](NC(=O)CCCCCCCCCCCCCCCCC(=O)O)C(=O)O)C(=O)O)C(=O)O)NC(=O)[C@@H](NC(=O)[C@H](Cc1ccccc1)NC(=O)[C@H](CC(=O)O)NC(=O)[C@H](CCCNC(=N)N)NC(=O)[C@H](C)NC(=O)[C@H](CCCNC(=N)N)NC(=O)[C@H](CCCNC(=N)N)NC(=O)[C@H](C)NC(=O)[C@H](CC(=O)O)NC(=O)[C@H](CC(C)C)NC(=O)[C@H](Cc1ccc(O)cc1)NC(=O)[C@H](CCCCN)NC(=O)[C@H](CO)NC(=O)[C@H](Cc1ccc(O)cc1)NC(=O)[C@H](CC(=O)O)NC(=O)[C@H](CO)NC(=O)[C@@H](NC(=O)[C@H](Cc1ccccc1)NC(=O)[C@@H](NC(=O)CNC(=O)[C@H](CCC(N)=O)NC(=O)C(C)(C)NC(=O)[C@@H](N)Cc1c[nH]cn1)[C@@H](C)O)[C@@H](C)O)C(C)C)C(=O)N[C@@H](CO)C(=O)N[C@H](C(N)=O)[C@@H](C)O
notes: also called Chem. 1; Chem 1
B3: N^ε24-[2-[2-[2-[[2-[2-[2-[[(4S)-4-carboxy-4-[[(4S)-4-carboxy-4-[[(4S)-4-carboxy-4-(17-carboxyheptadecanoylamino)butanoyl]amino]butanoyl]amino]butanoyl]amino]eth … (peptide)
peptide: H[Aib]QGTFTSDYSKYLESRRARDFVK([AEEA-AEEA-γGlu-γGlu-γGlu-C18 diacid])WLIST-NH2
modifications: N-terminus assumed
SMILES: CC[C@H](C)[C@H](NC(=O)[C@H](CC(C)C)NC(=O)[C@H](Cc1c[nH]c2ccccc12)NC(=O)[C@H](CCCCNC(=O)COCCOCCNC(=O)COCCOCCNC(=O)CC[C@H](NC(=O)CC[C@H](NC(=O)CC[C@H](NC(=O)CCCCCCCCCCCCCCCCC(=O)O)C(=O)O)C(=O)O)C(=O)O)NC(=O)[C@@H](NC(=O)[C@H](Cc1ccccc1)NC(=O)[C@H](CC(=O)O)NC(=O)[C@H](CCCNC(=N)N)NC(=O)[C@H](C)NC(=O)[C@H](CCCNC(=N)N)NC(=O)[C@H](CCCNC(=N)N)NC(=O)[C@H](CO)NC(=O)[C@H](CCC(=O)O)NC(=O)[C@H](CC(C)C)NC(=O)[C@H](Cc1ccc(O)cc1)NC(=O)[C@H](CCCCN)NC(=O)[C@H](CO)NC(=O)[C@H](Cc1ccc(O)cc1)NC(=O)[C@H](CC(=O)O)NC(=O)[C@H](CO)NC(=O)[C@@H](NC(=O)[C@H](Cc1ccccc1)NC(=O)[C@@H](NC(=O)CNC(=O)[C@H](CCC(N)=O)NC(=O)C(C)(C)NC(=O)[C@@H](N)Cc1c[nH]cn1)[C@@H](C)O)[C@@H](C)O)C(C)C)C(=O)N[C@@H](CO)C(=O)N[C@H](C(N)=O)[C@@H](C)O
notes: also called Chem. 11; Chem 11
B4: N^ε24-[2-[2-[2-[[2-[2-[2-[[(4S)-4-carboxy-4-[[(4S)-4-carboxy-4-[[(4S)-4-carboxy-4-(17-carboxyheptadecanoylamino)butanoyl]amino]butanoyl]amino]butanoyl]amino]eth … (peptide)
peptide: H[Aib]QGTFTSDYSKYLDLRRARDFVK([AEEA-AEEA-γGlu-γGlu-γGlu-C18 diacid])WLIST-NH2
modifications: N-terminus assumed
SMILES: CC[C@H](C)[C@H](NC(=O)[C@H](CC(C)C)NC(=O)[C@H](Cc1c[nH]c2ccccc12)NC(=O)[C@H](CCCCNC(=O)COCCOCCNC(=O)COCCOCCNC(=O)CC[C@H](NC(=O)CC[C@H](NC(=O)CC[C@H](NC(=O)CCCCCCCCCCCCCCCCC(=O)O)C(=O)O)C(=O)O)C(=O)O)NC(=O)[C@@H](NC(=O)[C@H](Cc1ccccc1)NC(=O)[C@H](CC(=O)O)NC(=O)[C@H](CCCNC(=N)N)NC(=O)[C@H](C)NC(=O)[C@H](CCCNC(=N)N)NC(=O)[C@H](CCCNC(=N)N)NC(=O)[C@H](CC(C)C)NC(=O)[C@H](CC(=O)O)NC(=O)[C@H](CC(C)C)NC(=O)[C@H](Cc1ccc(O)cc1)NC(=O)[C@H](CCCCN)NC(=O)[C@H](CO)NC(=O)[C@H](Cc1ccc(O)cc1)NC(=O)[C@H](CC(=O)O)NC(=O)[C@H](CO)NC(=O)[C@@H](NC(=O)[C@H](Cc1ccccc1)NC(=O)[C@@H](NC(=O)CNC(=O)[C@H](CCC(N)=O)NC(=O)C(C)(C)NC(=O)[C@@H](N)Cc1c[nH]cn1)[C@@H](C)O)[C@@H](C)O)C(C)C)C(=O)N[C@@H](CO)C(=O)N[C@H](C(N)=O)[C@@H](C)O
notes: also called Chem. 12; Chem 12
B5: N^ε24-[2-[2-[2-[[2-[2-[2-[[(4S)-4-carboxy-4-[[(4S)-4-carboxy-4-[[(4S)-4-carboxy-4-(17-carboxyheptadecanoylamino)butanoyl]amino]butanoyl]amino]butanoyl]amino]eth … (peptide)
peptide: H[Aib]QGTFTSDYSKYLDAKRAREFVK([AEEA-AEEA-γGlu-γGlu-γGlu-C18 diacid])WLIST-NH2
modifications: N-terminus assumed
SMILES: CC[C@H](C)[C@H](NC(=O)[C@H](CC(C)C)NC(=O)[C@H](Cc1c[nH]c2ccccc12)NC(=O)[C@H](CCCCNC(=O)COCCOCCNC(=O)COCCOCCNC(=O)CC[C@H](NC(=O)CC[C@H](NC(=O)CC[C@H](NC(=O)CCCCCCCCCCCCCCCCC(=O)O)C(=O)O)C(=O)O)C(=O)O)NC(=O)[C@@H](NC(=O)[C@H](Cc1ccccc1)NC(=O)[C@H](CCC(=O)O)NC(=O)[C@H](CCCNC(=N)N)NC(=O)[C@H](C)NC(=O)[C@H](CCCNC(=N)N)NC(=O)[C@H](CCCCN)NC(=O)[C@H](C)NC(=O)[C@H](CC(=O)O)NC(=O)[C@H](CC(C)C)NC(=O)[C@H](Cc1ccc(O)cc1)NC(=O)[C@H](CCCCN)NC(=O)[C@H](CO)NC(=O)[C@H](Cc1ccc(O)cc1)NC(=O)[C@H](CC(=O)O)NC(=O)[C@H](CO)NC(=O)[C@@H](NC(=O)[C@H](Cc1ccccc1)NC(=O)[C@@H](NC(=O)CNC(=O)[C@H](CCC(N)=O)NC(=O)C(C)(C)NC(=O)[C@@H](N)Cc1c[nH]cn1)[C@@H](C)O)[C@@H](C)O)C(C)C)C(=O)N[C@@H](CO)C(=O)N[C@H](C(N)=O)[C@@H](C)O
notes: also called Chem. 2; Chem 2
B6: N^ε24-[2-[2-[2-[[2-[2-[2-[[(4S)-4-carboxy-4-[[(4S)-4-carboxy-4-[[(4S)-4-carboxy-4-(17-carboxyheptadecanoylamino)butanoyl]amino]butanoyl]amino]butanoyl]amino]eth … (peptide)
peptide: H[Aib]QGTFTSDYSKYLDARRAREFVK([AEEA-AEEA-γGlu-γGlu-γGlu-C18 diacid])WLIST-NH2
modifications: N-terminus assumed
SMILES: CC[C@H](C)[C@H](NC(=O)[C@H](CC(C)C)NC(=O)[C@H](Cc1c[nH]c2ccccc12)NC(=O)[C@H](CCCCNC(=O)COCCOCCNC(=O)COCCOCCNC(=O)CC[C@H](NC(=O)CC[C@H](NC(=O)CC[C@H](NC(=O)CCCCCCCCCCCCCCCCC(=O)O)C(=O)O)C(=O)O)C(=O)O)NC(=O)[C@@H](NC(=O)[C@H](Cc1ccccc1)NC(=O)[C@H](CCC(=O)O)NC(=O)[C@H](CCCNC(=N)N)NC(=O)[C@H](C)NC(=O)[C@H](CCCNC(=N)N)NC(=O)[C@H](CCCNC(=N)N)NC(=O)[C@H](C)NC(=O)[C@H](CC(=O)O)NC(=O)[C@H](CC(C)C)NC(=O)[C@H](Cc1ccc(O)cc1)NC(=O)[C@H](CCCCN)NC(=O)[C@H](CO)NC(=O)[C@H](Cc1ccc(O)cc1)NC(=O)[C@H](CC(=O)O)NC(=O)[C@H](CO)NC(=O)[C@@H](NC(=O)[C@H](Cc1ccccc1)NC(=O)[C@@H](NC(=O)CNC(=O)[C@H](CCC(N)=O)NC(=O)C(C)(C)NC(=O)[C@@H](N)Cc1c[nH]cn1)[C@@H](C)O)[C@@H](C)O)C(C)C)C(=O)N[C@@H](CO)C(=O)N[C@H](C(N)=O)[C@@H](C)O
notes: also called Chem. 4; Chem 4

Key:
human GLP-1 receptor [1] = biological target: T1, human GLP-1 receptor (human, UniProt P43220 24-463); test: cell-based or functional assay
human glucagon receptor [2] = biological target: T2, human glucagon receptor (human, UniProt P47871 26-477); test: cell-based or functional assay
T2 sequence (P47871 26-477): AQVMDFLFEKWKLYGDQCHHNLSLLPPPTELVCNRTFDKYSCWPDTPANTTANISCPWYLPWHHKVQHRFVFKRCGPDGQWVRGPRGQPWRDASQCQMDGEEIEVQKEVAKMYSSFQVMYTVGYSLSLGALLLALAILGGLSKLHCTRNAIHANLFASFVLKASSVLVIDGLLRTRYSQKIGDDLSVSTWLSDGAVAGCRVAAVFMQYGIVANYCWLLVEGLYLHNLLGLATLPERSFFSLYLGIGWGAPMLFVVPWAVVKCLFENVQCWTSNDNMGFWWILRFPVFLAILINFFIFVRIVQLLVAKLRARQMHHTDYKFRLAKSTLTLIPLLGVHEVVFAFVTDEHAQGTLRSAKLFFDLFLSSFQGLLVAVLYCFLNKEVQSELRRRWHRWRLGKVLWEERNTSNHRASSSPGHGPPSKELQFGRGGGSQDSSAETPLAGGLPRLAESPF

human GLP-1 receptor [3] = biological target: T1, human GLP-1 receptor; test: displacement of [125I]-GLP-1-(7-36)NH2 from BHK membranes with human GLP-1R, SPA, no serum albumin
human glucagon receptor [4] = biological target: T2, human glucagon receptor; test: displacement of [125I]-glucagon from BHK membranes with human glucagon receptor, SPA, no serum albumin

| Binder | GLP-1R EC50 (pM) [Assay (I)(a)], CRE luciferase reporter, BHK cells (human GLP-1 receptor [1]) [pM] | GlucagonR EC50 (pM), [Assay (I)(b)], CRE luciferase reporter, BHK cells (human glucagon receptor [2]) [pM] | IC50 (human GLP-1 receptor [3]) [nM] | IC50 (human glucagon receptor [4]) [nM] |
| --- | --- | --- | --- | --- |
| B1 | 5.5 | 29 | 0.1 | 6.7 |
| B2 | 3.5 | 17.5 | 0.9 | 11.3 |
| B3 | 8 | 428 | 0.5 | 52 |
| B4 | 29 | 108 | 2.8 | 95.9 |
| B5 | 2 | 10 | 0.3 | 7.5 |
| B6 | 3 | 12 | 0.1 | 3.9 |
| H[Ac4c]QGTFTSDLSKYLESRRAREFVQWLIK([AEEA-AEEA-γGlu-γGlu-C18 diacid])T-NH2 (also called Chem. 18; Chem 18) | 4 | 32 | 0.1 | 11.1 |
| H[Aib]QGTFTSDLSKYLDARRARDFVQWLIK([γGlu-γGlu-γGlu-C18 diacid])T-NH2 (also called Chem. 15; Chem 15) | 4 | 7 |  | 1.7 |
